# Where two headings read alike, the source gives them in different places.
# B1: mouse Interleukin 33 (residues 112-270) (ligand)
# chain: SIQGTSLLTQSPASLSTYNDQSVSFVLENGCYVINVDDSGKDQEQDQVLLRYYESPCPASQSGDGVDGKKVMVNMSPIKDTDIWLHANDKDYSVELQRGDVSPPEQAFFVLHKKSSDFVSFECKNLPGTYIGVKDNQLALVEEKDESCNNIMFKLSKI
# B2: Heligmosomoides polygyrus Alarmin Release Inhibitor (HpARI), full-length (natural protein)
# chain: AGQRCRFTDVERDKGYTGMLLKGRLRKTAGNGRTVELICGRGNHNYTCESGVLKESSPRQARCGCKGILEMLFDMPKEERPSPMYDSVTYDPTPNTPTTVGKDGIWNGVDYRNGSTVKPYCDTGPVINGSSKAVCVSGKWVPTLGVCPKMCSIGSLKENGKFVDVTATTKGDELNPPPREQTLIPIVRKVDKDKVQHGVKVVALCKAEDSTTAAEGVQEFECDNGKWKPEPVPCP
# modifications: biotinylated with EZ-Link Sulfo-NHS-Biotin where immobilised for SPR
# B3: HpARI-LD (full-length HpARI with residues 180-188 of the CCP3 loop deleted) (natural protein)
# chain: AGQRCRFTDVERDKGYTGMLLKGRLRKTAGNGRTVELICGRGNHNYTCESGVLKESSPRQARCGCKGILEMLFDMPKEERPSPMYDSVTYDPTPNTPTTVGKDGIWNGVDYRNGSTVKPYCDTGPVINGSSKAVCVSGKWVPTLGVCPKMCSIGSLKENGKFVDVTATTKGDELNPPPRKVDKDKVQHGVKVVALCKAEDSTTAAEGVQEFECDNGKWKPEPVPCP
# modifications: biotinylated with EZ-Link Sulfo-NHS-Biotin where immobilised for SPR
# B4: HpARI_CCP1/2 (HpARI with CCP3 truncated) (domain or fragment)
# chain: AGQRCRFTDVERDKGYTGMLLKGRLRKTAGNGRTVELICGRGNHNYTCESGVLKESSPRQARCGCKGILEMLFDMPKEERPSPMYDSVTYDPTPNTPTTVGKDGIWNGVDYRNGSTVKPYCDTGPVINGSSKAVCVSGKWVPTLGVCPK
# modifications: biotinylated with EZ-Link Sulfo-NHS-Biotin where immobilised for SPR
# Tests used:
# Assay in all cases: SPR
# [1] = target: T1, HpARI point mutant of residue E70 (Heligmosomoides polygyrus bakeri, biotinylated with EZ-Link Sulfo-NHS-Biotin where immobilised for SPR)
# [2] = target: T2, HpARI point mutant of residue W107 (Heligmosomoides polygyrus bakeri, biotinylated with EZ-Link Sulfo-NHS-Biotin where immobilised for SPR)
# [3] = target: T3, HpARI point mutant of residue Y112 (Heligmosomoides polygyrus bakeri, biotinylated with EZ-Link Sulfo-NHS-Biotin where immobilised for SPR)
# [4] = target: T4, HpARI-N152 (HpARI with an N-linked glycan inserted at residue 152, interface A) (Heligmosomoides polygyrus bakeri, N-linked glycan at residue 152)
# [5] = target: T4, HpARI-N152 (HpARI with an N-linked …); remark: listed apart in the source
# [6] = target: T1, HpARI point mutant of residue E70; remark: listed apart in the source
# [7] = target: T2, HpARI point mutant of residue W107; remark: listed apart in the source
# [8] = target: T3, HpARI point mutant of residue Y112; remark: listed apart in the source
# [9] = target: B1
# [10] = target: B1
binder,measurement,setting,value
B1,Kd,[1],0.31 nM
same,koff,[1],9.89e-05 s⁻¹
same,Kd,[2],1.18 nM
same,koff,[2],0.000162 s⁻¹
same,Kd,[3],0.528 nM
same,koff,[3],9.33e-05 s⁻¹
same,koff,[4],6.12e-05 s⁻¹
same,Kd,[5],0.0474 nM
same,Kd,[6],~0.3 nM
same,Kd,[7],~1.2 nM
same,Kd,[8],~0.5 nM
B2,koff,[9],4.51e-05 s⁻¹
B3,koff,[9],0.00296 s⁻¹
same,Kd,[10],4.53 nM
B4,koff,[9],0.00201 s⁻¹

# Reference: publication doi:10.1101/2023.08.10.552813 (2023)
